# Experimental data as given in patent US20240254245A1 (JIANGSU HENGRUI PHARMACEUTICALS, published 2024).
# Substitutions are numbered along the chain they refer to.
# T1: human RANKL protein (Sino Biological, 11682-HNCH) (human, UniProt O14788 136-317, limits assumed)
# T1 construct: Bought protein
# T1 sequence (looked up): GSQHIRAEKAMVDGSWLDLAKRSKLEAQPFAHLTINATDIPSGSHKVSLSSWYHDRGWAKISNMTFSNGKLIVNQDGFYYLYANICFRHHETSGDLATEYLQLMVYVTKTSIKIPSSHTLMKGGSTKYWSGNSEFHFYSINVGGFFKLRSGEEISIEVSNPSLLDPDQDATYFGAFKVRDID
# T2: murine RANKL (R&D Systems, 462-TR/CF) (murine, UniProt O35235 72-316, limits assumed)
# T2 construct: Bought protein
# T2 sequence (looked up): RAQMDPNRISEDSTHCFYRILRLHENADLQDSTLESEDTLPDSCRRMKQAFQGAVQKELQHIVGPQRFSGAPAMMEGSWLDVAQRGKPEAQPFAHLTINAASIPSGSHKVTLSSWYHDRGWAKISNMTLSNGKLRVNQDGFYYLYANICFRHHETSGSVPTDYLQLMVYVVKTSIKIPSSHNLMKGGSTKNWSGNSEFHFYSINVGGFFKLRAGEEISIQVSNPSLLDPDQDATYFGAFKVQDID
# B1: Tanezumab (antibody, human IgG2, kappa, V domains shown)
# VH: QVQLQESGPGLVKPSETLSLTCTVSGFSLIGYDLNWIRQPPGKGLEWIGIIWGDGTTDYNSAVKSRVTISKDTSKNQFSLKLSSVTAADTAVYYCARGGYWYATSYYFDYWGQGTLVTVSS
# VL: DIQMTQSPSSLSASVGDRVTITCRASQSISNNLNWYQQKPGKAPKLLIYYTSRFHSGVPSRFSGSGSGTDFTFTISSLQPEDIATYYCQQEHTLPYTFGQGTKLEIKR
# notes: Control antibody; also called control anti-NGF antibody
# B2: 2-79L (antibody, V domains shown)
# VH: EVQLLESGGGLVQPGGSLRLSCAASGFTFSSYAMSWVRQAPGKGLEWVSGITGSGGSTYYADSVKGRFTISRDNSKNTLYLQMNSLRAEDTAVYYCAKDPGTTVIMSWFDPWGQGTLVTVSS
# VL: EIVLTQSPGTLSLSPGERATLSCRASQSVRGRYLAWYQQKPGQAPRLLIYGSSSRATGIPDRFSGSGSGTDFTLTISRLEPEDFAVFYCQQYGSSPRTFGQGTKVEIK
# notes: Variable regions fused to human constant regions
# B3: 2-52L (antibody, V domains shown)
# VH: B2 VH
# VL: B2 VL with G51Q, S52G
# notes: as for B2
# B4: 4-64L (antibody, V domains shown)
# VH: B2 VH
# VL: B2 VL with S52A, T98I
# notes: as for B2
# B5: 3-83L (antibody, V domains shown)
# VH: B2 VH
# VL: B2 VL with S28A, V29L, R30G, G31V, Y33G, S52A
# notes: as for B2
# B6: 5-53H (antibody, V domains shown)
# VH: B2 VH with K98Q, G101C, T102F, V104Y
# VL: B2 VL with S52A
# notes: as for B2
# B7: 3-37L (antibody, IgG4, V domains shown)
# VH: B2 VH
# VL: B2 VL with S28A, V29I, Y33K, G51D, S52T
# notes: as for B2
# B8: 5-51H (antibody, V domains shown)
# VH: B2 VH with G101C, T102F, T103S, V104Y
# VL: B2 VL with S52A
# notes: as for B2
# B9: 3-20L (antibody, IgG4, V domains shown)
# VH: B2 VH
# VL: B2 VL with S28A, V29I, R32P, Y33N, G51D, S52T
# notes: as for B2
# B10: 2-72L (antibody, V domains shown)
# VH: B2 VH
# VL: B2 VL with V29L, R30G, G31A, Y33G, S52T
# notes: as for B2
# B11: 5-58H (antibody, V domains shown)
# VH: B2 VH with A97V, K98Q, T102F, V104Y
# VL: B2 VL with S52A
# notes: as for B2
# B12: 2-87L (antibody, IgG4, V domains shown)
# VH: B2 VH
# VL: B2 VL with S28Y, V29L, R30P, G31F, R32H, Y33R, G51D, S52T
# notes: as for B2
# B13: 2-76L (antibody, IgG4, V domains shown)
# VH: B2 VH
# VL: B2 VL with S28A, V29I, R30P, G31Y, R32N, Y33Q, S52V
# notes: as for B2
# B14: 3-85L (antibody, V domains shown)
# VH: B2 VH
# VL: B2 VL with V29I, R30P, R32P, Y33R, S52A
# notes: as for B2
# B15: 1-22H (antibody, V domains shown)
# VH: B2 VH with S30A, S31D, T52S, G53A, G56S
# VL: B2 VL with S52A
# notes: Variable regions were fused to human heavy and light chain constant regions to form complete chains
# B16: 5-16H (antibody, V domains shown)
# VH: B2 VH with G101A, T102S, T103I
# VL: B2 VL with S52A
# notes: as for B2
# Molecular target: T3, human NGF protein (Sino biological, 11050-HNAC) (human, UniProt P01138 122-241)
# Assay: cell-based or functional assay
# T3 sequence (P01138 122-241 limits assumed): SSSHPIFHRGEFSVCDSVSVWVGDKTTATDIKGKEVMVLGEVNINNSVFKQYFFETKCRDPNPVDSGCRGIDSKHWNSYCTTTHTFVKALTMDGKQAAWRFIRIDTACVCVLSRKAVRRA
row,Binder,"TF-1 cell proliferation-inhibiting activity, fold relative to bispecific antibody 1 [times]"
1,B1,~4.2

# Molecular target: T3, human NGF protein (Sino biological, …)
# Assay: cell-based or functional assay
# Remark: another data set of the same source
row,Binder,"TF-1 cell proliferation-inhibiting activity (TF-1 cells + human NGF, Cell-titer Glo) IC50 [nM]"
1,B1,0.759

# Molecular target: T1, human RANKL protein (Sino Biological, …)
# Assay: ELISA on coated antigen (1 ug/mL), anti-human Fc-HRP
# Procedure: (§1) The antigen was diluted to 1 μg/mL with a pH 7.4 PBS buffer (BasalMedia, B320) and added to a 96-well microplate (Coming, 9018) at 100 μL/well, and the plate was incubated overnight at 4° C. After the liquid was discarded, a 5% skim milk (BD, 232100) blocking solution diluted with PBS was added at 300 μL/well, and the plate was incubated at 37° C. for 2 h for blocking. After the blocking was complete, the blocking solution was discarded, and the plate was washed 3 times with a PBST buffer (pH 7.4 PBS containing 0.1% tween-20). Then a bispecific antibody diluted with a sample diluent (pH 7.4 containing 1% BSA) to different concentrations was added at 100 μL/well, and the plate was incubated in a 37° C. incubator for 1 h. After the incubation was complete, the plate was washed 3 times with PBST. An HRP-labeled anti-human Fc secondary antibody (Abcam, ab97225) diluted with the sample diluent was added at 100 μL/well, and the plate was incubated at 37° C. for 1 h. After the plate was washed 3 times with PBST, TMB chromogenic substrate (KPL, 5120-0077) was added at 100 μL/well, and the plate was incubated at room temperature for 10 to 15 min. 50 μL of 1 M H₂SO₄ was added to each well to stop the reactions. The absorbance values at 450 nm were taken using a microplate reader, and the EC50 values for binding of the bispecific antibody to the antigens were calculated.
row,Binder,binding result
1,B1,no binding

# Molecular target: T2, murine RANKL (R&D Systems, 462-TR/CF)
# Assay: as above
# Procedure: as §1
row,Binder,binding result
1,B1,no binding

# Molecular target: T3, human NGF protein (Sino biological, …)
# Assay: as above
# Procedure: as §1
row,Binder,EC50 [nM]
1,B1,2.27

# Molecular target: T4, murine NGF (Sino Biological, 50385-MNAC) (murine, UniProt P01139 122-241)
# T4 construct: Bought protein
# Assay: as above
# Procedure: as §1
# T4 sequence (P01139 122-241 limits assumed): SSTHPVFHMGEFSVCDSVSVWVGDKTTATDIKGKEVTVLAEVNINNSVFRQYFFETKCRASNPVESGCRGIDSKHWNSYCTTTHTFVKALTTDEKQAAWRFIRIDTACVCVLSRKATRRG
row,Binder,EC50 [nM]
1,B1,1.15

# Molecular target: T1, human RANKL protein (Sino Biological, …)
# Assay: SPR (Biacore), antibody captured on Protein A chip, RANKL in flow, 1:1 fit
# Procedure: (§2) Reaction signals were detected in real time by using Biacore, and binding and dissociation curves were obtained. After dissociation was complete in each cycle, the biochip was washed and regenerated with a glycine-hydrochloric acid regeneration solution (GE, BR-1003-54) having a pH of 1.5. Fitting was performed on the experimental data using BIAevaluation version 4.1 software with a 1:1 model, and affinity values were obtained.
Binder,Kd [nM],Ratio of affinities (fold increase in affinity relative to denosumab) [fold],koff [s⁻¹],kon [M⁻¹ s⁻¹]
B2,16.3,0.57,0.000232,14200
B3,14.2,0.65,0.000222,15700
B4,17.1,0.54,0.000253,14800
B5,20.7,0.45,0.000322,15600
B6,34,0.27,0.000583,17200
B7,19.7,0.47,0.000305,15500
B8,23.6,0.39,0.00069,29200
B9,13.5,0.68,0.000272,20100
B10,19,0.49,0.000308,16200
B11,41,0.23,0.000501,12200
B12,25.6,0.36,0.000273,10700
B13,20.3,0.46,0.000341,16800
B14,22.3,0.41,0.000335,15000
B15,9.81,0.94,0.000253,25800
B16,8.91,1.04,0.00026,29200

# Molecular target: T3, human NGF protein (Sino biological, …)
# Assay: SPR (Biacore), antibody captured on Protein A chip, antigen in flow, 1:1 fit
# Procedure: as §2
Binder,Kd [nM],koff [s⁻¹],kon [M⁻¹ s⁻¹]
B1,0.142,0.000184,1.29e+06

# Molecular target: T3, human NGF protein (Sino biological, …)
# Assay: blocking ELISA: antibody titrated with fixed biotin-human NGF, on coated human TrkA
# Procedure: (§3) The plate was incubated at 37° C. for 1.5 h. After the incubation was complete, the plate was washed 3 times with PBST. Streptavidin-HRP (Invitrogen, 434323, diluted at 1:4000) was added at 100 μL/well, and the plate was incubated at 37° C. for 1 h. The supernatant was removed. After the plate was washed 3 times with PBST, TMB chromogenic substrate (KPL, 5120-0077) was added at 100 μL/well, and the plate was incubated at room temperature for 10 to 15 min. […] The absorbance values at 450 nm were taken using a microplate reader.
row,Binder,IC50 [nM]
1,B1,3.66

# Molecular target: T1, human RANKL protein (Sino Biological, …)
# Assay: blocking ELISA: antibody titrated with fixed biotin-human RANKL, on coated human RANK
# Procedure: as §3, with “After” for “The plate was incubated at 37° C. for 1.5 h. After”
row,Binder,IC50 [nM]
1,B6,1.37
2,B11,0.999
